From US20130230554A1

Target: SVGmu, modified Sindbis virus envelope glycoprotein (SEQ ID NO: 11) (Sindbis virus) (UniProt P03316)
Assay: confocal imaging; anti-HA-biotin plus Cy5-streptavidin staining of GFP-vpr-labeled lentiviral particles on coverslips

With “anti-HA-biotin antibody (Miltenyi Biotec)” the fraction of GFP-labeled particles stained for SVGmu was over 90%.
